Laboratory results reported in paper PMC2888197, “B-lymphocyte stimulator/a proliferation-inducing ligand heterotrimers are elevated in the sera of patients with autoimmune disease and are neutralized by atacicept and B-cell maturation antigen-immunoglobulin” (Arthritis Research & Therapy, 2010).

B1: B-cell maturation antigen (BCMA)-immunoglobulin (Ig) (Fc fusion, UniProt Q02223 1-54, looked up)
chain: MLQMAGQCSQNEYFDSLLHACIPCQLRCSSNTPPLTCQRYCNASVTNSVKGTNA
notes: BCMA, soluble receptor-Fc fusion protein; Construct not described in the main text; Additional file 1 may describe it; also called BCMA-Ig
B2: Flag-zippered (zz) 12.6 form of APRIL (amino acids 110-250) (domain or fragment, human, UniProt O75888 110-250, looked up)
chain: KQKKQHSVLHLVPINATSKDDSDVTEVMWQPALRRGRGLQAQGYGVRIQDAGVYLLYSQVLFQDVTFTMGQVVSREGQGRQETLFRCIRSMPSHPDRAYNSCYSAGVFHLHQGDILSVIIPRARAKLNLSPHGTFLGFVKL
notes: human APRIL amino acids 110-250, downstream of the otPA leader, Flag and the zz12.6 trimerization domain; The APRIL chain of the heterotrimer m3; the zipper itself may help to hold the chains together; also called Flag-zz12.6 APRIL; APRIL NF zz12.6; source: CHO DXB11, co-expressed with Hisx6-zz12.6 BLyS, purified from conditioned media (Ni-NTA, heparin, SEC); not shown: Flag, N-terminal, kept; …
B3: a proliferation-inducing ligand (APRIL) homotrimer, recombinant (ligand, human, UniProt O75888 110-250, looked up)
chain: B2 chain
notes: APRIL, recombinant soluble homotrimer; Six lots were used for SPR; also called homotrimeric APRIL
B4: atacicept (Fc fusion, human, UniProt O14836 1-165, looked up)
chain: MSGLGRSRRGGRSRVDQEERFPQGLWTGVAMRSCPEEQYWDPLLGTCMSCKTICNHQSQRTCAAFCRSLSCRKEQGKFYDHLLRDCISCASICGQHPKQCAYFCENKLRSPVNLPPELRRQRSGEVENNSDNSGRYQGLEHRGSEASPALPGLKLSADQVALVYS
notes: also called TACI-Ig; soluble receptor fusion protein of TACI

Experiments:
Conditions in all cases: both partners purified
[1] = biological target: B3; test: SPR; Biacore 3000; atacicept, BCMA-Ig and BAFF-R-Ig covalently immobilized on a CM4 chip; ligands ~0.05 to 20 nMol/L flowed at 50 ul/min, 25 C; 20 mmol/L sodium phosphate, 150 mmol/L NaCl, 0.05% polysorbate 20, pH 7.5; KD from ka and kd, global fit to a 1:1 model; stoichiometry not determined
[2] = biological target: T1, recombinant BLyS/APRIL heterotrimer (Hisx6-zz12.6 BLyS with Flag-zz12.6 APRIL), predominantly 2 APRIL to 1 … (human, UniProt O75888 110-250; Q9Y275 141-285); test: as above
T1 construct: human APRIL amino acids 110-250, downstream of the otPA leader, Flag and the proprietary zz12.6 trimerization domain; The preparation holds a small fraction of 1 APRIL to 2 BLyS (AB2) heterotrimers; also called heterotrimers; HT; not shown: Flag, N-terminal, kept; zz12.6 trimerization domain, N-terminal, kept; His6, N-terminal, kept; copies: 2 + 1

[3] = biological target: T2, Hisx6-zz12.6 form of BLyS (amino acids 141-285) (human, UniProt Q9Y275 141-285); test: SEC-MALS; heterotrimer co-expressed in CHO, purified by Ni-NTA (His on BLyS), heparin and SEC; ratio of the chains by Western blot (anti-His, anti-Flag), confirmed by SEC-MALS
T2 construct: The BLyS chain of the heterotrimer m3; the zipper itself may help to hold the chains together; also called BLyS NH6 zz12.6; His-zz12.6 BLyS; source: CHO DXB11, co-expressed with Flag-zz12.6 APRIL, purified from conditioned media (Ni-NTA, heparin, SEC); not shown: His6, N-terminal, kept; zz12.6 trimerization domain, N-terminal, kept

atacicept = biological target: B4; test: SPR; Biacore 3000; atacicept, BCMA-Ig and BAFF-R-Ig covalently immobilized on a CM4 chip; ligands ~0.05 to 20 nMol/L flowed at 50 ul/min, 25 C; 20 mmol/L sodium phosphate, 150 mmol/L NaCl, 0.05% polysorbate 20, pH 7.5; KD from ka and kd, global fit to a 1:1 model; stoichiometry not determined

T1 sequence (Q9Y275 141-285, chain 2 of 2, one chain of several): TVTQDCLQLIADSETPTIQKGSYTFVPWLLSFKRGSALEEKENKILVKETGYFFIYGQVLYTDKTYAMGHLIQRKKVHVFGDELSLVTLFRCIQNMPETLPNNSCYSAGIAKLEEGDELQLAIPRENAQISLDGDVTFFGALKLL
T2 sequence (Q9Y275 141-285): as the sequence (Q9Y275 141-285, chain 2 of 2, one chain of several) above

For B1, which Kd [1] is on record?
Its Kd is 0.0001 to 0.0003 nM.

What about the Kd [2] of the same binder?
Its Kd is 0.01 nM.

How did the “stoichiometry N” value [3] turn out when B2 was run?
Its value is 2 APRIL per BLyS.

B3 was tested. Which Kd (atacicept) did it give?
Its Kd is 0.1 to 0.2 nM.

B4 was tested. Which Kd [2] did it give?
The Kd was 0.4 nM.
